Several values for one entry are separate records, joined by “and”; a condition that tells them apart may be missing. Equal entries are not always repeated.
T1: Strep-II-UNO_C (D. melanogaster, UniProt Q7JQU5 281-417)
T1 construct: source: Hi5 insect cells, baculovirus, co-expressed with MBP-SNM; purified (Strep-Tactin, SEC); not shown: twin Strep-II, N-terminal, kept
T1 sequence (looked up): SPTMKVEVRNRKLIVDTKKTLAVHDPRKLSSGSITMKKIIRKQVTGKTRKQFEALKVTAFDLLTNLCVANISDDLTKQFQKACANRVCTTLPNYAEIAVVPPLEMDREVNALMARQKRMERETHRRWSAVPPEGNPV


Legend:
[1] = target: the molecule itself; experiment: SEC-MALS; purified protein alone, 50 μL at 5–10 μM, 50 mM HEPES pH 7.5, 1 mM TCEP, 300 mM NaCl
[2] = target: T1, Strep-II-UNO_C; experiment: SEC-MALS + other: mass photometry; purified SU_C complex; SEC-MALS in 50 mM HEPES pH 7.5, 1 mM TCEP, 300 mM NaCl, 5–10 μM; mass photometry in 30 mM HEPES pH 7.8, 150 mM NaCl, 3 μM diluted 1:100; settings: both partners purified

stoichiometry N [2] | Binder | stoichiometry N [1]
 | MBP-UNO_N (domain or fragment, D. melanogaster, UniProt Q7JQU5 1-73, looked up, UNO, D. melanogaster, N-terminal domain aa 1-73; found as a tetramer (SEC peak 1) and as a dimer (SEC peak 2); source: E. coli BL21, purified (amylose/MBP Trap, ion exchange, SEC); not shown: His6, N-terminal, kept; MBP, N-terminal, kept) MPALTHQILTMQRAPPLNLSFKIQLLSGQNVILVECSGYESELFLPQIVGERITMQNVIQDRRCCAESMLLRD | 4 and 2
 | Mod(mdg4)_CP (purified) (domain or fragment) MADDEQFSLCWNNFNTNLSAGFHESLCRGDLVDVSLAAEGQIVKAHRLVLSVCSPFFRKMFTQMPSNTHAIVFLNNVSHSALKDLIQFMYCGEVNVKQDALPAFISTAESLQIKGLTDND | 6
1 | MBP-SNM (natural protein, D. melanogaster, UniProt Q9W0F4 1-973, looked up, SNM (stromalin in meiosis; SA-2), D. melanogaster; source: purified (Strep-Tactin, SEC); not shown: MBP, N-terminal, kept) MSDISFDDAVLNDSQASNQMDFEIREECSIAPNDEPVCVDGTVGDATNKSLLQMILSRKRLSPTNKRNSHIESVAKYWGEFYLDSPTAALVALLQFVVEVSGSHYQIPDDTSMPFSYSDILSNSSSHFSNTHIYPLIRKPADVFVNQVGSFLNALLLVANKFRSDSYQLFLVQLTNFVMACSESNIRTFRHTATMIGLKIMTILSDLKSLDDEIAMTVWMQMFNSMFVARSRDIVTDIRLLCISELGQWFARYPHCHLQPTSLRIFYEALNDGSGDVIQCSLDNISVLCRKDVLFSEIVALTSEFREILVELCLGKEDAIAEKSVQFLTHFHVLSAEILTDDVCRVLEQLIMAANRGLAQAAADLFILRRNGLDGETFCQRVKHLLQLFIECGHEQADYLVDSLIDNCELVLDWKSMIAVLLENPKSRELSDIHCSSLIAILLAGVKQATAGEIPPGRYTKDLKREPRQGAQERATKCLAPVLPELLRTYANRLQDIERLLELPKYFCFDYYHEQNRMGQLNELVEHFELIIFDQTSSTTVLQITVKTLEFLNRMIPIPLTKQLLNSAVTNYKMAWHRTQDTSPSRSTHNESNRLLATLRLLTVLSGHFNLSKWDLTEPLLFSLKMLLRQRRLPNGDDLPPEAFSLYLKACFCCLCWDMENLEGTALNNVDMDEYCDVLHHNLEDYLYVTFSLVGKSNTEPLAYPCFSYTCDLFVLHGNLCGSSNPSIRSVAHVPSGNELDILEGFLMEHFLELSPSDLMLETNSDQLQRIRSILTSYLKVVCLGVVPTMRASKFYEYYVKYHAPFGDVMRCSMELALQRNPIHFAMTMLHTCLLLYAKVFPDDTRHAAGQRALRPAEFSELMELANRLAKILISNPMEHRECVIALHRSGILFVFELAQKQPTEATKKLPFLRVLKVFVPLLLVQDKTRILNFFEPYEQLIIPTCNRNDIAHLKEYRNALRPRKTKSYPQAT | 

Reference: article PMC9767379, “Homologous chromosomes are stably conjoined for Drosophila male meiosis I by SUM, a multimerized protein assembly with modules for DNA-binding and for separase-mediated dissociation co-opted from cohesin” (PLOS Genetics, 2022)
